Values joined by “and” are separate entries in the source; they are usually repeats but may differ in a detail not shown here. Equal entries are not always repeated.
What was measured:
PD-L1 on CHO-PD-L1 cells [1] = molecular target: T1, PD-L1 on CHO-PD-L1 cells (UniProt Q9NZQ7 19-290, limits assumed); assay: cell-based or functional assay
PD-L1 on CHO-PD-L1 cells [2] = molecular target: T1, PD-L1 on CHO-PD-L1 cells; assay: flow cytometry on CHO-PD-L1 cells, anti-human IgG PE
[3] = molecular target: T2, PD-L1 on mature human dendritic cells (human, UniProt Q9NZQ7 19-290); assay: flow cytometry on mature human DC, anti-human IgG PE
T2 construct: whole, on cells; also called DC细胞表面PD-L1

人PD-L1重组蛋白(Sino …) = molecular target: T3, 人PD-L1重组蛋白(Sino Biological,Cat.10084-H05H) (human, UniProt Q9NZQ7 19-239); assay: competition ELISA, human PD-L1 coated, blocks PD-1-His
T3 construct: also called 人PD-L1蛋白

[4] = molecular target: T4, 食蟹猴PD-L1蛋白(Cat.#90251-C08H，Sinobiological) (cynomolgus monkey, UniProt G7PSE7 19-239); assay: SPR, Biacore T200, antibody captured on Protein A chip, 25℃, 1:1 model
T4 construct: Bought protein used as analyte in Biacore; also called 食蟹猴PD-L1-His蛋白; 食蟹猴PD-L1重组蛋白; not shown: His tag

重组人TGF-β1蛋白 = molecular target: T5, 重组人TGF-β1蛋白 (human, UniProt P01137 279-390); assay: bridging ELISA: TGF-β1 coated, test molecule, then PD-L1-His and anti-His-HRP
T5 construct: also called 重组人、食蟹猴TGF-β1(Cat.#10804-HNAC，Sinobiological); 人TGF-β1重组蛋白(Novoprotein,Cat.CA59)
T5 sequence (P01137 279-390 limits assumed): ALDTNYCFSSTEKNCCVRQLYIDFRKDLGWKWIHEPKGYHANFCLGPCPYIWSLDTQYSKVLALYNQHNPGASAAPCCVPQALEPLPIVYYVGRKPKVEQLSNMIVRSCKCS

T1 sequence (Q9NZQ7 19-290 limits assumed): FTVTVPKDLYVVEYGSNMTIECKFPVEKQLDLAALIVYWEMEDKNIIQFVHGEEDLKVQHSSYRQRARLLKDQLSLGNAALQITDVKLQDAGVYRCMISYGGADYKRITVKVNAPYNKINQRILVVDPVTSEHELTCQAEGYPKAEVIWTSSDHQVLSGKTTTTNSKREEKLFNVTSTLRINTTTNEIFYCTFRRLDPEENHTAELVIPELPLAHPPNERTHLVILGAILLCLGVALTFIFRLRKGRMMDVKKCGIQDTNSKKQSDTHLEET
T3 sequence (Q9NZQ7 19-239 limits assumed): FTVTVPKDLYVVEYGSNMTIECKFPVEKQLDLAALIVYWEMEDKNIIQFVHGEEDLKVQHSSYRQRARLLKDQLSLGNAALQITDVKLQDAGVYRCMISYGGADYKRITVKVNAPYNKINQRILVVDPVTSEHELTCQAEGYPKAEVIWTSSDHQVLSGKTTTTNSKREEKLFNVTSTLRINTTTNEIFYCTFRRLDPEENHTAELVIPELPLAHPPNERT
T4 sequence (G7PSE7 entry or part of it C08H C08H): as the sequence (Q9NZQ7 19-239 limits assumed) above, with A33T, A34S, S62N, R68Q, Q82R, F173L, T185A, T192I, H215L counted along it
T2 sequence (Q9NZQ7 19-290): as the sequence (Q9NZQ7 19-290 limits assumed) above

EC50, NFAT luciferase reporter (RLU), Jurkat-PD-1/CHO-PD-L1 (PD-L1 on CHO-PD-L1 cells [1]): 341 ng/ml and 2.15 nM
EC50 (PD-L1 on CHO-PD-L1 cells [2]): 0.105 µg/mL
EC50 [3]: 0.405 nM
IC50 (人PD-L1重组蛋白(Sino …)): 0.896 nM and 1.49 nM
binding result [4]: binds
binding result (重组人TGF-β1蛋白): no binding (tested: 4nM)
B1: 人源化抗PD-L1抗体156-BM12 (antibody, V domains shown)
VH: QVQLVQSGPELKKPGASVKISCKASGYTFTDYYMNWVRQAPGQSLEWIGDINPNNGDTSYNQKFKGRVTLTRDTSTSTVYMELRSLRSEDTAVYYCARSVMDYWGQGTLVTVSS
VL: EIVLTQSPALLSLSPGERVTLSCSASSSVNYVYWYQQKPGQAPRPLIYLTFNLASGIPARFSGSGSGTDFTLTISSLEPEDFAVYYCQQWSSNPLTFGGGTKVEIK
notes: also called PD-L1单抗156-BM12; 人源化PD-L1抗体

From patent CN114773485A (JIANGSU SIMCERE PHARM CO LTD, dated 2022)
